To fix the notation:
B1: TplEi (natural protein)
chain: CTSFSSSRSSSMDKTGWITHCFGRFLIDLPPDAVINAGYYLWGDRIEYLDDKPTELAARVDRLEQEWRTQRHKSKGNMFLRKIDFGNESVGLLSWSSEVASKTYLLDTYVTSKPTWHVYRWKGKVSVDREQHAVEISRALARNLRSRAPKEIPSEPGFCIDHAYIAGDSFQVERFGVGVTFPEHPGARFEFRSSTGAELNSLLERVDGFVQNMLSTFAGMETLRKGKHPVGSLPGEEYLVAGSDKGQRGYTFMWEVQGKEESLTEPNLTAGLAVLERSNENGKPPPPAFKSDKEALELWDTIVDSIRVRPTSSSPRGGNAGPSPAPKPATPGGQTLGDHYVYEEFLSSLKPKDSWLDDL

Some targets named below: I88A; G98A; L91A.
Test in all cases: ITC
On the technique in general: In ITC the heat of successive injections is recorded.

The test “TplEi” has as its target B1.

Consider Ac-DDLFASIGALWTWAWRGPKARQELLKAEQVEVDD-NH2 [A peptides (“L” peptide, TplE 82-108 plus EQVEVDD)], for which the Ka with TplEi amounted to 7.98e+06 M⁻¹.
As a reminder, the Kd is the constant that tells how readily two partners part at equilibrium. With B1, the dissociation constant (Kd) with I88A was determined as 4.8 µM; with G98A, 1.31 µM; with L91A it was 3.7 µM.
In the test with TplEi, Ac-DDLFASIGALWTWAWRGPKARQELLKAEQ-NH2 [B peptides (“L” peptide, TplE 82-108 plus EQ)] gave a Ka of 2.09e+06 M⁻¹.

The values are drawn from publication PMC5611513 (2017).
